T1: VegT (Xenopus, UniProt P87377 1-455)
T1 sequence: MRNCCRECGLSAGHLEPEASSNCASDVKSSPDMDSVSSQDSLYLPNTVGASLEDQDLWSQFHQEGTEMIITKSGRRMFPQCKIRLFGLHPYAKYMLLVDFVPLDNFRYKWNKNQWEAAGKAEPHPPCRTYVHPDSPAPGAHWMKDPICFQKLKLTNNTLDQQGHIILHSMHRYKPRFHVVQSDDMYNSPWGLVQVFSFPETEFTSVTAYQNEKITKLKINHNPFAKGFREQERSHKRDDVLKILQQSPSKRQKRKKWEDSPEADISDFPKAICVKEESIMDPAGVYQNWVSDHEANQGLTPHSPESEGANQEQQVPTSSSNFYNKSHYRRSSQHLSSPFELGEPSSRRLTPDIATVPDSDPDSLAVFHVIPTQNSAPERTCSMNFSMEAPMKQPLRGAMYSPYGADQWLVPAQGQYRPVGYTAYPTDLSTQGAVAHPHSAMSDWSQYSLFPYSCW


Target: T1, VegT
Assay: EMSA; poly(dI.dC); 15 µl with 3 µl MDB buffer (20 mM HEPES pH 7.9, 100 mM KCl, 12.5 mM MgCl2, 0.1 mM EDTA, 17% glycerol, 2 mM DTT (printed DDT)), 2 µg poly(dI.dC), 1 µl IVT protein, 10 min + 10 min (preincubation at 30 °C); 15% gel at 4 °C; 50-fold competitor in controls
Details: label: 5' 32P (forward strand), blunt

Binder	binding result
B1 T-box mutant (dsDNA) DNA 1: TCTCCAGAGTACGCACATTCATTGTTTGTTA DNA 2: TAACAAACAATGAATGTGCGTACTCTGGAGA	no binding
B1 T-box probe (dsDNA) DNA 1: TGTCCAGAGTTCACACCATCATTGTTTGTTA DNA 2: TAACAAACAATGATGGTGTGAACTCTGGACA	binds
T-box consensus (Derrière) (dsDNA) DNA 1: TCTCCAGAGTTCACACCTTCATTGTTTGTTA DNA 2: TAACAAACAATGAAGGTGTGAACTCTGGAGA	binds
